Experimental data reported in the supplement of paper PMC10567573.

B1: FAM46D (parent)
chain: FQEAMTHLQHKLICTRKPEEIRGG
B2: TTC32 (parent)
chain: YSAYIRRCACAASSDESPGSKCSP

Variants of: B1
Assay: protein stability index of a GFP-peptide fusion (GPS, HEK-293T) (PSI 1-6); higher = more stable
Conditions: c terminus: a fixed tail appended
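Note: lentivirally expressed fusions sorted by FACS into six bins by GFP to DsRed ratio, PSI derived from sequencing read proportions per bin multiplied by bin number.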

Protein stability index: each site, then its substitutions
E19: C 1.97, R 1.42, L 2.26, G 1.83, F 2.09, D 2.55, T 2.28, N 2.53, S 2.76, P 3.13, A 2.79, Y 2.15, I 1.98, M 1.58, Q 2.23, H 2.3, K 2.67, V 2.01
E20: C 2.3, V 2.38, T 2.5, K 3.26, D 2.69, M 2.03, I 1.77, P 2.39, Q 2.33, A 2.15, G 1.99, Y 2.34, W 2.08, R 2.19, N 2.64, H 1.89, L 2.05, F 2.38, S 2.33
G23: P 2.87, W 2.48, E 2.16, N 3.01, F 2.02, Y 2.41, A 2.76, V 2.15, K 3.19, Q 2.34, D 3.08, R 2.45, C 2.08, M 2.6, T 2.14, S 2.71, I 2.6, L 2.66, H 2.61
G24: D 2.96, Y 2.59, C 2.52, H 2.26, I 1.91, L 2.45, F 2.3, S 2.9, A 2.26, V 3.09, M 1.85, K 3.34, T 2.96, E 2.49, P 2.64, Q 2.91, N 2.51, R 2.07, W 1.68
R22: E 3.29, K 3.07, Q 2.94, F 2.34, G 2.85, T 2.96, W 1.41, S 2.66, V 3.04, Y 1.91, N 2.93, L 2.7, P 2.51, C 2.41, H 3.14, D 3.3, I 2.41, M 2.39, A 2.85
P18: I 2, Y 2.14, L 2.11, D 2.7, H 2.33, E 3.41, W 2.35, T 2.85, G 2.48, S 2.43, R 2.09, M 2.24, V 2.54, F 2.61, N 3.04, K 1.82, Q 2.19
I21: T 3.56, C 2.73, G 2.69, Y 2.21, S 3.74, N 3.87, A 3.27, M 2.9, L 2.34, W 2.07, Q 3.05, P 3.36, R 3.93, D 3.26, E 2.98, F 2.62, V 2.43, K 3.72, H 3.4

Variants of: B2
Assay: as above
Conditions: c terminus: a fixed tail appended

Protein stability index of substitutions, site by site:
Y4: M 2.1, C 2.4, T 2.24, A 2.01, K 2.5, W 3.57, E 3.34, V 3.07, D 3.36, H 2.12, G 3.35, N 2.85, F 1.92, L 2.45, I 2.08, Q 2.65, S 2.29, R 2.67, P 2.45
R7: H 1.9, K 2.23, A 2.17, E 2.81, Y 2.06, I 1.42, D 3.92, C 1.55, M 2.14, W 2.53, P 3.01, Q 2.48, N 2.78, V 1.64, G 2.7, T 2.08, F 2.59, L 2.16, S 2.42
A9: P 2.16, E 3.19, N 2.37, V 2.17, H 1.92, Q 2.25, G 1.82, I 2.38, L 2.26, S 1.98, C 1.59, M 1.96, D 2.58, T 2.14, Y 1.55, W 1.45, K 2.38, F 1.76, R 2.66
Y1: Q 2.56, D 3.44, A 2.62, R 2.64, L 2.61, F 2.27, E 3.29, N 2.96, I 1.72, S 2.54, C 2.04, W 2.45, G 2.48, T 2.52, V 2.17, K 2.75, M 2.45, P 2.88, H 2.65
R6: D 3.62, V 1.74, Q 2, C 2.26, I 2.43, T 2.08, S 2.41, G 2.53, Y 2.25, F 2.64, N 2.58, K 1.97, M 1.33, W 3.52, P 2.66, E 2.9, H 1.82, L 2.07, A 2.07
A3: C 2.02, D 2.62, K 2.44, F 1.86, G 2, V 2.05, Q 2.91, L 2.18, I 1.51, H 2.15, W 2.19, Y 1.75, M 2.15, S 2.43, R 1.89, N 1.54, E 1.92, T 2.16, P 1.69
C10: R 2.78, S 2.92, Q 2.69, N 2.73, E 3.78, P 2.88, D 3.2, A 3.13, M 1.97, Y 2.17, K 3.42, V 2.07, W 1.44, H 2.92, F 2.14, G 3.46, T 2.73, I 2.38, L 2.28
S2: N 2.35, A 2.38, C 2.06, V 2.52, E 2.7, Y 1.92, H 4.15, R 1.82, K 1.92, T 2.1, G 2.37, L 2, P 2.59, M 1.91, D 2.6, F 2.16, W 1.91, I 1.58, Q 2.02
A11: D 1.98, G 2.08, R 1.74, I 1.94, M 1.83, Q 2.03, H 2.33, K 2.36, C 2.06, N 2.35, P 2.29, E 1.87, F 2.11, L 1.74
C8: S 3.03, E 3.93, D 3.89, L 2.38, Q 3.23, W 2.48, H 2.91, M 2.05, I 2.21, N 3.41, A 3.5, F 2, R 2.99, G 2.87, K 3.48, T 3.06, Y 2.07, V 2.67, P 3.49
I5: H 2.82, G 2.09, S 2.52, A 1.86, R 2.27, V 1.85, D 3.16, L 2.12, Q 2.09, E 3.46, K 2.65, M 2.29, Y 2.45, F 2.51, W 3.7, N 3.13, P 2.24, C 2.15, T 2.61
